Assay results taken from paper PMC10954479 (Nucleic Acids Research, 2024).
Substitutions are numbered along the chain they refer to. Names may count otherwise.

T1: HDAC4GRD (residues 62–192) F93D mutant (human, UniProt P56524 62-192, F93D)
T1 sequence: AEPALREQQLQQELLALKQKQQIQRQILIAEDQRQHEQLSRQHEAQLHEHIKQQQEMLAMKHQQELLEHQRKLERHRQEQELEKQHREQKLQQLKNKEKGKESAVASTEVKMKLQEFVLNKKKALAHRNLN

B1: Site-2 DNA (dsDNA)
DNA 1: CTAAGCAAATGAGATGAATATGCAGGGCACCATGCTAAAAATAAAATGGTTTCATGGTGCTAGTGAGGAAGGAA
DNA 2: TTCCTTCCTCACTAGCACCATGAAACCATTTTATTTTTAGCATGGTGCCCTGCATATTCATCTCATTTGCTTAG
B2: 28 bp EMSA DNA (dsDNA)
DNA 1: GGGAAAGTTTCTATTATTAGCAGAGATA
DNA 2: TATCTCTGCTAATAATAGAAACTTTCCC
B3: Site-1 DNA (dsDNA)
DNA 1: GGGAAAGTTTCTATTATTAGCAGAGATA
DNA 2: TATCTCTGCTAATAATAGAAACTTTCCC
B4: 15 bp crystallization DNA (dsDNA)
DNA 1: AAACTATTTATAAGA
DNA 2: TCTTATAAATAGTTT
B5: human HDAC4 glutamine-rich domain (HDAC4GRD, residues 62–192), wild type (domain or fragment)
chain: T1 sequence with D32F
B6: HDAC4GRD (residues 62–192) H109D mutant (domain or fragment)
chain: T1 sequence with D32F, H48D
B7: human MEF2A MADS-box/MEF2s domain (residues 1–95) (domain or fragment)
chain: MGRKKIQITRIMDERNRQVTFTKRKFGLMKKAYELSVLCDCEIALIIFNSSNKLFQYASTDMDKVLLKYTEYNEPHESRTNSDIVEALNKKEHRG

Columns and labels:
[1] = target: T2, MEF2A1-95;HDAC4GRD H109D (Homo sapiens;Homo sapiens, UniProt Q02078;P56524 1-95;62-192, |H109D); assay: pull-down
[2] = target: T3, MEF2A1-95;HDAC4GRD WT (Homo sapiens;Homo sapiens, UniProt Q02078;P56524 1-95;62-192, |); assay: pull-down
[3] = target: T2, MEF2A1-95;HDAC4GRD H109D; assay: EMSA
[4] = target: T3, MEF2A1-95;HDAC4GRD WT; assay: EMSA
[5] = target: MEF2A1-95;HDAC4GRD F93D (Homo sapiens;Homo sapiens, UniProt Q02078;P56524 1-95;62-192, |F93D); assay: EMSA
[6] = target: T3, MEF2A1-95;HDAC4GRD WT; assay: pull-down; remark: listed apart in the source
[7] = target: T3, MEF2A1-95;HDAC4GRD WT; assay: X-ray crystallography
[8] = target: the molecule itself; assay: crystal structure
[9] = target: the molecule itself; assay: SEC
[10] = target: B6; assay: native gel or EMSA
[11] = target: T1, HDAC4GRD (residues 62–192) F93D mutant; assay: native gel or EMSA

B1
binding result [1]: binds
binding result [2]: binds

B2
binding result [3]: binds
binding result [4]: binds
binding result [5]: binds

B3
binding result [6]: binds

B4
binding result [7]: binds

B5
stoichiometry N [8]: 2

B6
binding result [9]: binds

B7
binding result [10]: binds
binding result [11]: binds
stoichiometry N [8]: 2
